Measured values: patent US20240360203A1 (GENERATE BIOMEDICINES, published 2024)
Like-named read-outs stand apart in the source and are kept apart here.

B1: AB-1 (antibody, V domains shown)
VH: EVQLVESGAEVKKPGESLKISCKGSGYTFTRYWIGWVRQMPGKGLEWMGIIYPGDSDVRYSPSFQGHVTISADKSISTAYLQWNSLKASDTAMYYCARLPQYCSKGVCYRWFDPWGQGTLVTVSS
VL: EIVLTQSPSSVSASVGDRVTITCRASQGISSWLAWYQQKPGKAPKLLIYAASSLQSGVPSRFSGSGSGTDFTLTISSLQPEDFATYYCQQGHSFPYTFGQGTNLEIK
B2: Reference Antibody (antibody, V domains shown)
VH: EVQLVESGAEVKKPGESLKISCKGSGYTFTRYWIGWVRQMPGKGLEWMGIIYPGDSDTRYSPSFQGHVTISADKSISTAYLQWNSLKASDTAMYYCARLPQYCSNGVCQRWFDPWGQGTLVTVSS
VL: EIVLTQSPSSVSASVGDRVTITCRASQGISSWLAWYQQKPGKAPKLLIYAASSLQSGVPSRFSGSGSGTDFTLTISSLQPEDFATYYCQQGNSFPYTFGQGTNLEIK

Columns and labels:
Experiment in all cases: cell-based or functional assay
[1] = target: T1, SARS-CoV-2 Delta Spike on pseudovirus (SARS-CoV-2, UniProt P0DTC2 14-1273)
[2] = target: T2, SARS-CoV-2 BA.2.12.1 Spike on pseudovirus (SARS-CoV-2, UniProt P0DTC2 14-1273)
[3] = target: T3, SARS-CoV-2 BA.2 Spike on pseudovirus (SARS-CoV-2, UniProt P0DTC2 14-1273)
[4] = target: T4, SARS-CoV-2 BA.4/5 Spike on pseudovirus (SARS-CoV-2, UniProt P0DTC2 14-1273)
[5] = target: T5, SARS-CoV-2 BA.1 Spike on pseudovirus (SARS-CoV-2, UniProt P0DTC2 14-1273)
[6] = target: T4, SARS-CoV-2 BA.4/5 Spike on pseudovirus; remark: listed apart in the source
[7] = target: T1, SARS-CoV-2 Delta Spike on pseudovirus; remark: listed apart in the source
[8] = target: T3, SARS-CoV-2 BA.2 Spike on pseudovirus; remark: listed apart in the source
[9] = target: T4, SARS-CoV-2 BA.4/5 Spike on pseudovirus; remark: listed apart in the source
[10] = target: T1, SARS-CoV-2 Delta Spike on pseudovirus; remark: listed apart in the source
[11] = target: T2, SARS-CoV-2 BA.2.12.1 Spike on …; remark: listed apart in the source
[12] = target: T3, SARS-CoV-2 BA.2 Spike on pseudovirus; remark: listed apart in the source
[13] = target: T4, SARS-CoV-2 BA.4/5 Spike on pseudovirus; remark: listed apart in the source
[14] = target: T5, SARS-CoV-2 BA.1 Spike on pseudovirus; remark: listed apart in the source
[15] = target: T2, SARS-CoV-2 BA.2.12.1 Spike on …; remark: listed apart in the source

Binder	IC50, pseudovirus neutralization [1] [ng/mL]	IC50, pseudovirus neutralization [2] [ng/mL]	IC50, pseudovirus neutralization [3] [ng/mL]	IC50, pseudovirus neutralization [4] [ng/mL]	IC50, pseudovirus neutralization [5] [ng/mL]	IC50, pseudovirus neutralization [6] [ng/mL]	IC50, pseudovirus neutralization [7] [ng/mL]	IC50, pseudovirus neutralization [8] [ng/mL]	IC50, pseudovirus neutralization [9] [ng/mL]	% neutralization at 4.5 µg/ml, pseudovirus [10] [%]	% neutralization at 4.5 µg/ml, pseudovirus [11] [%]	% neutralization at 4.5 µg/ml, pseudovirus [12] [%]	% neutralization at 4.5 µg/ml, pseudovirus [13] [%]	% neutralization at 4.5 µg/ml, pseudovirus [14] [%]	IC50, pseudovirus neutralization [15] [ng/mL]
B1	13.9	13.3	21.9	27.8	8.8	10.1	34	31	75	99.5	89.2	89.9	90.4	96.5	–
B2	68.1	30.7	94.1	31.4	26.1	–	256	1250	634	93.9	–	74.5	74.4	91.9	337
